Test results taken from patent publication US20240301086A1 (APTEVO RESEARCH AND DEVELOPMENT, published 2024).

B1: TSC266 Anti PSMA scFv x Anti CD3 scFv ADAPTIR (bispecific antibody)
chain: DIQMTQSPSAMSASVGDRVTITCRASKSISKYLAWFQQKPGKVPKLRIHSGSTLQSGVPSRFSGSGSGTEFTLTISSLQPEDFATYYCQQHIEYPWTFGQGTKVEIKRGGGGSGGGGSGGGGSQVQLVQSGAEVKKPGASVKVSCKASGYTFTDYYMHWVRQAPGQGLEWMGYFNPYNDYTRYAQKFQGRVTMTRDTSISTAYMELSSLRSDDTAVYYCARSDGYYDAMDYWGQGTTVTVSSSEPKSSDKTHTCPPCPAPEAAGAPSVFLFPPKPKDTLMISRTPEVTCVVVDVSHEDPEVKFNWYVDGVEVHNAKTKPREEQYNSTYRVVSVLTVLHQDWLNGKAYACAVSNKALPAPIEKTISKAKGQPREPQVYTLPPSRDELTKNQVSLTCLVKGFYPSDIAVEWESNGQPENNYKTTPPVLDSDGSFFLYSKLTVDKSRWQQGNVFSCSVMHEALHNHYTQKSLSLSPGQRHNNSSLNTGTQMAGHSPNSQVQLVESGGGVVQPGRSLRLSCKASGYTFTRSTMHWVRQAPGQGLEWIGYINPSSAYTNYNQKFKDRFTISADKSKSTAFLQMDSLRPEDTGVYFCARPQVHYDYNGFPYWGQGTPVTVSSGGGGSGGGGSGGGGSAQDIQMTQSPSSLSASVGDRVTMTCSASSSVSYMNWYQQKPGKAPKRWIYDSSKLASGVPARFSGSGSGTDYTLTISSLQPEDFATYYCQQWSRNPPTFGGGTKLQITSSS
notes: The anti-PSMA domain is that of PSMA01012 and the anti-CD3 domain is DRA222; also called unoptimized parent construct; TSC266 control (PSMA × CD3 bispecific protein)
B2: PSMA01107 Anti-PSMA scFv x Fc x linker x Anti CD3 scFv; Anti PSMA scFv x Fc (bispecific antibody)
chain 1: QVQLVQSGAEVKKPGASVKVSCKASGYTFTDYYMHWVRQAPGQGLEWMGYFNPYNDYTRYAQKFQGRVTMTRDTSTSTVYMELSSLRSEDTAVYYCARSDGYYDAMDYWGQGTTVTVSSGGGGSGGGGSGGGGSGGGGSDIQMTQSPSSLSASVGDRVTITCRASKSISKYLAWYQQKPGKAPKLLIHSGSSLESGVPSRFSGSGSGTEFTLTISSLQPDDFATYYCQQHIEYPWTFGQGTKVEIKEPKSSDKTHTCPPCPAPPAAAPSVFLFPPKPKDTLMISRTPEVTCVVVDVSHEDPEVKFNWYVDGVEVHNAKTKPREEQYNSTYRVVSVLTVLHQDWLNGKEYKCAVSNKALPAPIEKTISKAKGQPREPQVYTLPPSRDELTKNQVSLWCLVKGFYPSDIAVEWESNGQPENNYKTTPPVLDSDGSFFLYSKLTVDKSRWQQGNVFSCSVMHEALHNHYTQKSLSLSPGGGGSPSQVQLVQSGAEVKKPGASVKVSCKASGYTFTRSTMHWVRQAPGQGLEWIGYINPSSAYTNYAQKFQGRVTLTADKSTSTAYMELSSLRSEDTAVYYCASPQVHYDYNGFPYWGQGTLVTVSSGGGGSGGGGSGGGGSGGGGSDIQMTQSPSSLSASVGDRVTITCRASSSVSYMNWYQQKPGKAPKRWIYDSSKLASGVPSRFSGSGSGTDFTLTISSLQPEDFATYYCQQWSRNPPTFGQGTKVEIKRS
chain 2: QVQLVQSGAEVKKPGASVKVSCKASGYTFTDYYMHWVRQAPGQGLEWMGYFNPYNDYTRYAQKFQGRVTMTRDTSTSTVYMELSSLRSEDTAVYYCARSDGYYDAMDYWGQGTTVTVSSGGGGSGGGGSGGGGSGGGGSDIQMTQSPSSLSASVGDRVTITCRASKSISKYLAWYQQKPGKAPKLLIHSGSSLESGVPSRFSGSGSGTEFTLTISSLQPDDFATYYCQQHIEYPWTFGQGTKVEIKEPKSSDKTHTCPPCPAPPAAAPSVFLFPPKPKDTLMISRTPEVTCVVVDVSHEDPEVKFNWYVDGVEVHNAKTKPREEQYNSTYRVVSVLTVLHQDWLNGKEYKCAVSNKALPAPIEKTISKAKGQPREPQVYTLPPSRDELTKNQVSLSCAVKGFYPSDIAVEWESNGQPENNYKTTPPVLDSDGSFFLVSKLTVDKSRWQQGNVFSCSVMHEALHNHYTQKSLSLSPG
notes: Heterodimer, bivalent for PSMA and monovalent for CD3 (VH-VL scFv at the C-terminus); also called PSMA1107

Key:
[1] = molecular target: T1, human CD3ε in the TCR/CD3 complex on Jurkat cells (human, UniProt P07766 23-207); assay: flow cytometry on Jurkat cells, PE goat anti-human IgG Fc secondary, MFI (median)
T1 construct: whole, on cells; On the cells it stands in the whole TCR/CD3 complex; also called CD3 (+) cells; CD3-expressing Jurkat cells
Experimental: (§1) Constructs were initially tested in CD3ε and PSMA binding assays on Jurkat and C4-2B cells. Cells were labelled at approximately 100,000 cells per well, in 96-well plates, with serial dilutions of bispecific constructs ranging in concentration from of 0.1 to 300 nM, for 30 min on ice. Primary label was followed by washes and incubation with PE-labeled minimum cross species reactive secondary antibody, goat anti-human IgG Fcγ, F(ab′)2 (Jackson Laboratory) for 30 minutes on ice. Washes and incubation were done in staining buffer (PBS with 0.2% BSA and 2 mM EDTA). Cells were collected using an BD™ LSRII or a BD FACSymphony™ flow cytometer (BD Biosciences) and analyzed by FlowJo flow cytometry analysis software. Median fluorescence intensity (MFI) of bound molecules on cells was determined after exclusion of doublets. Results were plotted and nonlinear regression analysis to determine EC50 values was performed using GraphPad Prism 7© graphing and statistics software.

[2] = molecular target: T2, Full-length Human PSMA (TSC435), on cells (human, UniProt Q04609 1-750); assay: flow cytometry, drawn table 'On- Cell Binding Parameters', row 'Human PSMA binding affinity'
T2 construct: also called CHOK1SV/huPSMA; PSMA on C4-2B, 22RV1, LNCaP, MDA-PCa-2b cells

[3] = molecular target: T2, Full-length Human PSMA (TSC435), on …; assay: flow cytometry on C4-2B cells, PE goat anti-human IgG Fc secondary, MFI (median)
Experimental: as §1

[4] = molecular target: T2, Full-length Human PSMA (TSC435), on …; assay: as above; remark: listed apart in the source
Experimental: as §1

[5] = molecular target: T3, cynomolgus Fcγ receptor III (cynomolgus monkey, UniProt Q8SPW2 17-208); assay: SPR (Biacore T200), construct amine-coupled, soluble cyno Fcγ receptor as analyte
T3 construct: Called recombinant, soluble; also called Cyno RIII
Experimental: (§2) The Fc region incorporated into anti-PSMA bispecific constructs contained mutations intended to reduce or abolish binding to common human and cynomolgus Fc gamma receptors. SPR experiments were conducted at 25° C. in HBS-EP+ with 0.2% BSA buffer on a Biacore T200 system to evaluate the impact of these mutations on binding. For these experiments, three flow cells of a CM5 sensor chip were immobilized with anti-PSMA bispecifics by standard amine coupling to a response level of ˜2000 RU. A blank immobilization was performed on flow cell #1 for purposes of background signal subtraction. Both human and cynomolgus monkey Fcγ receptors (purchased from R&D Systems) were diluted in HBS-EP+ with 0.2% BSA to 4-6 μM and then flowed as analytes at 30 μL/min for 120 seconds followed by a 240 second dissociation step. No regeneration step was required. Blank-subtracted sensorgrams were visually inspected for binding to each of the Fcγ receptor proteins. […] Attenuated binding to Fcγ receptors IIA (both polymorphic variants) and IIB/C was observed. PSMA01107 and PSMA01108 share the same Fc amino acid sequence and therefore equivalent Fcγ receptor binding behavior was expected.

[6] = molecular target: T4, Full-length cynomolgus monkey PSMA (TSC308), on cells (cynomolgus monkey, UniProt Q04609 1-750 (human entry)); assay: flow cytometry on CHO-CynoPSMA cells, Median (PE); drawn table row 'Cyno PSMA binding affinity'
T4 construct: also called cyno PSMA; CHOK1SV/cynoPSMA
T4 chain: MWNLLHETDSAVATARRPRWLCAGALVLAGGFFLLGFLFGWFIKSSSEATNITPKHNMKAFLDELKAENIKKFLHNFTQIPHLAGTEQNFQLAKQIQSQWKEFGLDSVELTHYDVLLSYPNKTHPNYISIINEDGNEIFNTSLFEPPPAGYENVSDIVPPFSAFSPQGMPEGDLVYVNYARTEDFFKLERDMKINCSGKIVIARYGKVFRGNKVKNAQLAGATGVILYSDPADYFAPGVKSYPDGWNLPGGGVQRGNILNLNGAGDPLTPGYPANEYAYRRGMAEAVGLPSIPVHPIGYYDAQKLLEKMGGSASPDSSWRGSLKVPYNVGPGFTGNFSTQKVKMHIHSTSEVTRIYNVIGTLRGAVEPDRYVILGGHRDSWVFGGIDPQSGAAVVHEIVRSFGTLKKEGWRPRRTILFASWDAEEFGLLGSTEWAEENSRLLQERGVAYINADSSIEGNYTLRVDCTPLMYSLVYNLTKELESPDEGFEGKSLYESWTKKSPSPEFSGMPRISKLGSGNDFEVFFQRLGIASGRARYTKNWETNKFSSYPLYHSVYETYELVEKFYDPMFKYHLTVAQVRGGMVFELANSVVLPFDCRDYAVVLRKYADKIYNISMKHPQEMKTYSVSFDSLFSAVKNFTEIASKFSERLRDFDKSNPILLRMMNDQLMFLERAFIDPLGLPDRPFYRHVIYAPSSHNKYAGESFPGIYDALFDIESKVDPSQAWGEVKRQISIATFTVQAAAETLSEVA

[7] = molecular target: human Fcγ receptor I (human, UniProt P12314 16-288); assay: SPR (Biacore T200), construct amine-coupled, Fcγ receptor as analyte
Experimental: as §2

[8] = molecular target: human Fcγ receptor IIIB (human, UniProt O75015 17-200); assay: as above
Experimental: as §2

[9] = molecular target: human Fcγ receptor IIIA, V176 variant (human, UniProt P08637 17-208); assay: as above
Experimental: as §2

[10] = molecular target: human Fcγ receptor IIIA, F176 variant (human, UniProt P08637 17-208); assay: as above
Experimental: as §2

[11] = molecular target: T1, human CD3ε in the TCR/CD3 complex on …; assay: flow cytometry on Jurkat cells, PE goat anti-human IgG Fc secondary, MFI (median); remark: listed apart in the source
Experimental: as §1

[12] = molecular target: T1, human CD3ε in the TCR/CD3 complex on …; assay: flow cytometry, drawn table 'On- Cell Binding Parameters', row 'Human CD3 binding affinity'
Experimental: as §1

T1 sequence (P07766 23-207, one chain of several): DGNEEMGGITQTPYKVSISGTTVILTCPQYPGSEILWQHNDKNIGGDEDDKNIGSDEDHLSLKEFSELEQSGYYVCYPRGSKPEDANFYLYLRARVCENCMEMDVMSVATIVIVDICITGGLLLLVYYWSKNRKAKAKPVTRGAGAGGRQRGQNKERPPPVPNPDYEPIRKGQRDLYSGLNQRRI
human Fcγ receptor IIIA, F176 variant, sequence (P08637 17-208, change not shown): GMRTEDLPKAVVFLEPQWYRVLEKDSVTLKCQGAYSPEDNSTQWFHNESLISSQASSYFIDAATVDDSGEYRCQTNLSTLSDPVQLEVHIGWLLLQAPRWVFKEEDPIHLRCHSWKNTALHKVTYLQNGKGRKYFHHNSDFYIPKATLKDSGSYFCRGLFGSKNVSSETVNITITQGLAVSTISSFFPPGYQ
human Fcγ receptor IIIA, V176 variant, sequence (P08637 other isoform, or with tags, fused parts or gaps mutant): as the sequence (P08637 17-208, change not shown) above, with F160V counted along it
T3 sequence (Q8SPW2 17-208): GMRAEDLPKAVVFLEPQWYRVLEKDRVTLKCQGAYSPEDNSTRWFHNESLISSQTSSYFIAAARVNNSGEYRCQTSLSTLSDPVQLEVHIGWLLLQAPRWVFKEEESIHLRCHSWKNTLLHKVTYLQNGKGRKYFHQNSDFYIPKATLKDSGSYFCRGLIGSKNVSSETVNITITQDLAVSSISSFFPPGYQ
human Fcγ receptor I, sequence (P12314 16-288): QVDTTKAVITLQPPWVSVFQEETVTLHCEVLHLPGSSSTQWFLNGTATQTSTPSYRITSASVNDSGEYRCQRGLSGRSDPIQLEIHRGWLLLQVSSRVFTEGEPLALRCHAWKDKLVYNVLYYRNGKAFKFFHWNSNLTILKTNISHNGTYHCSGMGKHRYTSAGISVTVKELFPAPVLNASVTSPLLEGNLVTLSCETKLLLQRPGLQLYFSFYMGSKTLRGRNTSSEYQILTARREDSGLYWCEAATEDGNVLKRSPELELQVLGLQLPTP
human Fcγ receptor IIIB, sequence (O75015 17-200): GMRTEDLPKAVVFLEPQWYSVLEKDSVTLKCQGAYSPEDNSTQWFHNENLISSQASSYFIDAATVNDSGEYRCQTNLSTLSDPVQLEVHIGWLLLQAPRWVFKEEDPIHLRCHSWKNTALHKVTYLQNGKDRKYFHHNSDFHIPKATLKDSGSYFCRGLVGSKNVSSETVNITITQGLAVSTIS

Binder	EC50 [1] [nM]	EC50 [2] [nM]	Max [2]	EC50 [3] [nM]	EC50 [4] [nM]	binding result [5]	EC50 [6] [nM]	Max [6]	binding result [7]	binding result [8]	binding result [9]	binding result [10]	EC50 [11] [nM]	EC50 [12] [nM]	Max [12]
B1	2	10	1400	7	7	no binding (tested: 4-6 µM)	20	6000	no binding (tested: 4-6 µM)	no binding (tested: 4-6 µM)	no binding (tested: 4-6 µM)	no binding (tested: 4-6 µM)	2	2	15000
B2	> 200	1	2400	1	1	no binding (tested: 4-6 µM)	5	22000	no binding (tested: 4-6 µM)	no binding (tested: 4-6 µM)	no binding (tested: 4-6 µM)	no binding (tested: 4-6 µM)	> 208	> 200	2000
